The experiment has as its target mouse serum albumin (MSA) (mouse, UniProt P07724 25-608). Kind of experiment: yeast surface display library on rcSso7d scaffold, selection for MSA binders.

2 molecules from US20170252417A1 (MIT, published 2017) can be followed below.

B1: M18.2.5 (designed binder)
chain: ATVKFTYRGEEKQVDISKIKWVVRLGQVIMFKYDEGGGASGYGRVSEKDAPKELLQMLEK
notes: Isolated from a yeast surface display library built on the rcSso7d scaffold; In the vaccines it was fused at its C-terminus to GGGS-His tag-GGGS-E7 long
As for B1, the binding result is “binds”.

B2: M11.1.2 (designed binder)
chain: ATVKYTYRGEEKRVDISKIKWVNRWGQHLAFKYDKGGGAAGYGWVSEKDAPKELLQMLEKR
notes: as for B1
Take B2: the binding result is recorded as “binds”.
